Source: the DeepSol protein solubility set

experiment: soluble on expression in E. coli; label from the status in PepcDB or PDB records

Row | Sequence | soluble on expression in E. coli
1 | MSLTHGDVMLLATSFAPGSSNIIYQVIDELVNYFKKFLFTVNYDSELTTIADCFDLLNIPKDHPSRNLTDTFYLDKNRLLRTHCTAATLRAVKETKKSNNPDIRIASFGAVFRKDDDDATHSHQFNQLDFMWIKKDFSLTNLKWFMQNMINHIFGENTSARFRLSHFPFTEPSFEIDIRCWLCQNGCGVCKKTRWIEVLGAGILHPQVMANMGFSDTDNIRGIAAGIGIERLVMLKHGISDIRDLYDNNFKFLAQFTEGHHHHHH | not soluble
2 | TAQIKGLTQAQRNANDGISLAQTAEGALGEISNNLQRIRELAVQASNGTNTQTDRDALQAEVTQLQSEIQRVAEQTSFNGQKLLDGSFNGVQFQIGANAGETIGVSKIMNAQTASLGGSLTRTTSTIDATDLTKYDTAMAAGDLTINGVDVGKIDAASTAQERAAQLTEAINRVSSQTNVGASYDKTTGQVTLTSNAAIAVAGAANDATVAGWANNATTGTATTTTGINSLTVSSFTNAQQTITQIDNALKDINTARADLGAVQNRFTSTVANLQSMTENLSSALEHHHHHH | soluble
3 | MKFLQKEELRTLLQSLDLQSGINNDWFLLLIAKTGMRYAEALALTPSDFDWVNATVTIDKSWDYKTHRGFKKTKSTASDREIAIDWQIVGQFKPLIQDLPANDPIFIEKTERGTYKKQYNSTMNNYLEAKCKTLTITVISLHALRHTHASVLLAEGVSIHTISARLGHADVGVTQEIYAHVLDELQKKDDQKMMSVLMQIALEHHHHHH | soluble
4 | MDIPVFTMVGEWKCKEGEWKFEPKEGIFGRCVRVQETMTYTDFVRTLREAFSLKSTEINPIISYWMLGEMSVLIDTKHPPVYIDSQMGLETFFFGSWWVSFSQLVRLFQ | not soluble
5 | MSLAKLPVGGIWKARLVLNEMQWSPYIKVATFSADITLDVTDKNNGAIYLPAFGSATPRVDLNLRTQPLSTAPGGEVSGQANIDMCLYDGYNSNSPWLKVALSDLQTVAGRPADVFSLRRDGSSGTAAADRVDYRITLNYNNQPQTVNNGQDITLASVNSTLIRPVVMPGIAFPVICTPTPLTLNVLPFAKLSKAAGHFSGTLRVTLSADALAEGHHHHHH | not soluble
6 | MHNISAKKFLGYLKNKCLEFGVKVIEGNPAYTSIKCPNCGSRLSQLYKLADERALPSRLMYCFDCGFYADRDTVAVFNLIKRFTGLYPFSPKSNEPIAEGTVFPDEAMGLEHHHHHH | soluble
7 | INVIISTIISTKRADDFIIAMCNLIQRLTIDSLHIVGDIYDRGPGAHIIMDTLCNYHNFDIQWGNHDILWMGAASGNDSCIANVIRMSMRYGNLGTLEDGYGINLLPLATFAMDTYADDPCTIFMPKMNFADTNYNEKTLRLITQMHKAITIIQFKLEAEIIDRRPEFGMSNRKLLEKIDFERGVFVYEGKEYALRDTNFPTVDPADPYRLTDEERELVEKIHYSFMNSEKLKKHMRCLFTYGGMYLVSNSNLLYHASVPLNEDGSFKHVKIRGKEYWGRKLLDKADQLIRTAYFDEEGEDDKEFAMDYIWYMWCGPEAPLFDKDKMATFERYFLEDKEIQKEKKGYYYTLRNREDICDQILDEFGALGPHSHIINGHVPVKTIQGEQPMKANGKLFVIDGGFSKAYQPETGIAGYTLVYHSHGMQL | not soluble
8 | MGHHHHHHSHMAGTALKRLMAVYKQLTLNPPEGIVAGPMNEENFFEWEALIMGPEDTCFEFGVFPAILSFPLDYPLSPPKMRFTCEMFHPNIYPDGRVCISILHAPGDDPHGLREQPERWSPVQSVEKILLSVVSMLAEPNDESGANVDASKMWRDDREQFYKIAKQIVQKSLGL | not soluble
9 | MGSDKIHHHHHHMPKILKFNEEARRALERGVDKVANAVKVTLGPKGRNVVIEKSWGSPTITNDGVSIAKEIELEDKFENLGAQLVKEVASKTNDVAGDGTTTATVLAQAMIKEGLKNVAAGANPILLKRGIDKAVEKAVEEIKKVSKKLSGREDIAHVAAISANSAEIGELIAEAMDKVGEDGVITVEDSKTLETYVEFTEGMQFDRGYISPYFVTDAEKMEVVLKEPFILITDRKLSAVKPLIPILEKVAQTGKPLLVIAEDVEGEVLTTLVLNKLKGTLQSCAVKAPGFGERRKAMLQDIAILTGGQVASEELGINLEDLTLEDLGRADLVRVKKDETIIIGGKGDPEAIKKRIAQIKAQIEETTSEYEKETLQERMAKLAGGVAVIKVGAATETELKEKKHRIEDALSATRAAVEEGIVPGGGVTLLRARKAVEKVIEELEGDEKIGAQIVYKALSAPIKQIAENAGYDGAVIIEKILSNDDPAYGFDALRGEYCNMFERGIIDPAKVTRSALQNAASIAGMLLTTEVLIVEKPEEKKETPSMPEEF | not soluble
10 | MEEAKNMALLFFMDHLMQKNGRRTIHDLSCQFGARGFSEEMRNAVGTTQEGLTEFLQGHPSLFTVEGDQVILNGHNDLNAKNNPLLQSGIRSRNYEKEAVDFFVTKLTKFGPELQIKSLLGHRSQAAPEVRLVSGRHLKEFCEFLQSQVDYFVVEGDRVRLKNMPEPDENAIEMDDEGRPLAGVKAKQAAVEYLKSVLEQNEDQPIPLDQFYQNFCQRFSHTIRQDVATNPKELLQFLKLNRGLFFIRSNKVSLVKNRLNEDGSENGSDEGEETNNNGMFPLDQSALTRIHFVKALKPAQDLISRLWQDINNMEKKVVGLDLKTVTVGVDGEIFLSLGVIATTSQIGIFDLASSDVIILESGFKGILESEKVVKVIHDARRVASLLAHKYAVHMRNVFDTQVAHSLLQHEKFNKSLNEMRPISFINLQRVYYPQSIMLSDVTPRKMSMCPNWGVRPITEEFQLTIVEEAHCLLSALYQSLSNLIPVHLRGVFEDKCIEVNHPEVLLASPNRPPPQPFISSPYRASTRRDVRNGGSIMQSFSPAPYAAAPRPQMSDACTQTFSTGDIEVLNVFYE | not soluble
11 | MRGSHHHHHHGLVPRGSMIRTMLQGKLHRVKVTHADLHYEAGSCAIDQDFLDAAGILENEAIDIWNVTNGKRFSTYAIAAERGSRIISVNGAAAHCASVGDIVIIASFVTMPDEEARTWRPNVAYFEGDNEMKRTAKAIPVQVA | soluble
12 | MLTFKYLLASLLILLVSSQTWGQQSYGNSNQGYGQQQQGFSGFGQGSATNRQGMTGQGLLESSYQQGYGQNQGSMQGYSQQGYGGNSQQDYGYSQSQGSGMGVQGYGGSSQSYGQQAFAQQQRPQQGFQSNGFSGQQASGSMNSFGGQGGYGQNQNGFGGQSGFSGQSGWGSNSLSSANSNGNNNQGSSSGYQNNQGRHQGQGGGHSSSSNSVMSNNGYSSNSGYGNNNGPTPSFLNNVSSSAAQDYYNIVNNKSLTTNQINEQASNWASANSVQAQYIQYETNRSAIHTQATQNVSDIINNLATVQASIEGIQSNTSSSENDRQSAFQALQQAHPMEYSVLTSLQNQHEQTQYARMGSNGNSNSNYGNSNFNSNYGNNGYNHNGNNYFESTTATSAATKKKTTKATSG | not soluble
13 | MAHYKAADSKREQFRRYLEKSGVLDTLTKVLVALYEEPEKPNSALDFLKHHLGAATPENPEIELLRLELAEMKEKYEAIVEENKKLKAKLAQYEPPQEEKRAE | soluble
14 | GPGSMTDLRGVLPSKVISTPSGFVECSTHNVRRKAECCEMKAVLNADMEVIDYICVCKHPFTCKSASERQSNGLAAASNARRNAPDGERSGTAPLVIDASSTSMTAQSQHHHHGGQPSAAGAADKEAGVSTLFAVSFYDASRSTPGPSASATAAAVSPKPSAKDGEDREDEKGKDTRANAMRISDSDSDTDDGDSLDNSPSFTAGATPATAATAASFPAAPRERSRYYDSLQNASTGGHAPPAKVCWGCGMTGHEKPACPNALCRTCHQKRGPYGSPHRCTPVVTPSPLIVYPTPSEWRAATQKTAAAAGEPNGMAAVRCVACNEYGHFDCSTVVLPSSYALVASSSPGPAAVPHTLVPTCCFCGVRGHTVFDCQQREHVNPDYFERRNQLFADSVRRGSGITAAGAPFSNSGSSSGYGHPSQQQRQQRFYGSPTGGAPLSSSSFTRYGNGRGGGGSGQRRERDWCDNREQRVGGSQYSNSRREGSAYNNDSYGGDRDHQRRRYESPSFSRAGGGPAPSSSLLMHGRDRCQEGGQRHHEERSRDSYGGSHQRYSEGEHGGAGSRGHGQRSHYSQQSQHSHRHGSSRRGGRLGDSGYYSDDNLF | not soluble
15 | HHHMFNAKYVAEATGNFITVMDALKLNYNAKDQLHPLLAELLISINRVTRDDFENRSKLIDWIVRINKLSIGDTLTETQIRELLFDLELAYKSFYALLD | soluble
16 | MVTQNKKILIITGSFGNGHMQVTQSIVNQLNEMNLNHLSVIQHDLFMEAHPIMTSICKKWYINSFKYFRNTYKRFYYSRPNELDKCFYKYYGLNKLINLLIKEKPDLILLTFPTPVMSVLTEQFNINIPIATVMTDYRMHKNWITPYSQRYYVATKDTKDDFIEAGVPASYIKVTGIPIADKFELEHHHHHH | not soluble
17 | QTKIYESYKLPDYLKDKIKNNNHAEMDENDLDNKIFYKPNVAAHSQFIDYKYNGNHSVEIKFETDAIEVYEIRPVSIATITHVTIPNDCASNNSNSNECVLIIHVWNNSKFVGSNFSCSIACTNKETDQLASHINPIAPVRAFIGPNKNYAFYFIIKFLINKEITTLCKAIVKDSNGKECSIEEFELQSKESVHIVESEVDETTDQVVVEHHTQSPDIKNPDEYVCKCTINLLCYV | soluble
18 | EIDGTTYVDGGLFKDLPASVIREDCRYLIGVHLNPKEPSDYKKSLFGIAERCFGYIFRANSLPDRKLCDLLIESREIIKFKPFHVEPAEEIAAFGYKMAKQVLKTTSITRNP | not soluble
19 | MGSDKIHHHHHHMSPLAYSVANVNLESSHPTGALSVNLLSGRDVRRWDDFVSCCREATFFHRAGWQTVIERAFGHKTWFLYAECEGEIQGVLPLAEINSRLFGHSLSSLPFCVYGGIAADSQTVRDALDRSAQKLAQELQVDYLEYRNLKPHHADWHGKDLYVTFRKEIASEIEQNMSAIPRKQRAMVRKGIKAGLESVVDQDIERFFSAYSASVHRLGTPVFSRKYFRLLKEVFAEDCELMIIVKDNRTISAVMSFYFRDEVLPYYGGGTGEAREVAGNDFMYWELMRRACEKGCKVFDFGRSKRGSGSFDFKKNWGFEPQPLHYEYQLHQAKEVPDHNPLNPRYQIFIKAWQKLPLGLANLVGPHIVRNLG | not soluble
20 | MEVEVGQIVNTHGIKGEVKVKSNSDFTETRFQPGEQLLVKHNNTEIVYTVASYRIHKGFHMLRFEGINNINEIEHLKGDYIYQERDHQDIELGEHEYYYSDIIGCTVFKDDDTPIGRVINIFETGANDVWVVKGEKEYLIPYIEDVVKDIDIETKTIKITPMEGLLDLEHHHHHH | soluble
21 | MDTQKLIEVLAREVLKEIAKRENQKLSENNEIISKKSVVTAFLGNDEVLKDELKKEASFMENIKLDSTWEEIGQCENKKRLVVSTLGINELIELSQGRKSVITEFLFNDGEVVLVEEGLEYKKYTKPAALINLYDGYLDKVREFGIKVVKRTEVKNVFCTKEKVYLKGLVTERRLRKLKLKNQTLEVDAKSKITSLAMDYIKENSIELCYERRQ | not soluble
22 | MTSTFDRVATIIAETCDIPRETITPESHAIDDLGIDSLDFLDIAFAIDKAFGIKLPLEKWTQEVNDGKATTEQYFVLKNLAARIDELVAAKGALEHHHHHH | soluble
23 | MGSDKIHHHHHHMVNKFTQFLVAFISLWMLHSCSGPQKEYVLKVKLNKLTQKDMYEYNLVKDVIFDAQELNVDSIKARSRESFLKGVDEYKNKHNAAAAVPLFKQSILTFPDAKTYYELGNALMELNTEASLDESIKAYRVAEELDIKPIASVYYKMACAQNMIGTLKKSDEDEYMVISYLRKSFINGFYDTLTLAKDTRINSILSTMSYKTLLRELESFKYKEDRNGLFELFKQAYPRPVEFEAALTDLTQYENKESISYDFAVFVPEMQNTEFGREVSNDFFYNALVQETPAYTALIYTSVSFWGDHDALMPSFTSLVTYDPMGIIIDRKLIACQCSAEKVKTVKIKDNKVYVEDFKRIWKQPIDKVSFDDNEVDKFESLAKLTYTINEDGTIQASEIPANYMDTVITKDQSKNTPQ | not soluble
